The values that follow come from the DeepSol protein solubility set.

A short description of this data set: soluble on expression in E. coli; label from the status in PepcDB or PDB records.
As to “SSDSFDRAPEQTKPQRAPPSSQDKIPQQNSESAMAKPQVVVAPVLMSKLSANAPEFYPSGYSSNYTESYEDGCEDYPTLSEYVQDFLNHLTEQPGSFETEIEQFAETLNGWVTTDDALQELVELIYQQATSIPNFSYMGARLCNYLSHHLTISPQSGNFRQLLLQRCRTEYEAKDQAAKGDEVTRKRFHAFVLFLGELYLNLEIKGTNGQVTRADILQVGLRELLNALFSNPMDDNLICAVKLLKLTGSVLEDTWKEKGKTDMEEIIQRIENVVLDANCSRDVKQMLLKLVELRSSNWGRVHATSTYREATPENDPNYFMNEPTFYTSDGVPFTAADPDYQEKYQELLEREDFFPDYEENGTDLSGAGDPYLDDIDDEMDPEIEEAYEKFCLESERKRKQ”, the “soluble on expression in E. coli” value is “not soluble”.
As to “MGSDKIHHHHHHMLTKSSTELVRQQNSALVLAALRRKGSLSHTEIAAQTGLASATISVITAELERSGIIAKTEQHVQGGRGRPRVLFEPRRGCGYVIVVRISSDVVQYSLADYGGILLDRFEDARSHDLRGTAAFGEVLAAALERLLVRSNISKDEVLAISISSKGLVAGGGARLIWSPVFGREQLDFVELLRPAWRARIMLSNESLLVAHALAVREEERERGFHALAAVSLGHSIGLGLARRGKSGELDVSAPDFGHMLHQASAGLCRCGSYGCIEAAAGFYGILRTAFEVPSDTIPAKFVPLSEVDKIAASARQGNRMGGYAFRQAGLALGNGISRMLSLYEPMPIFVTGPGTRYFDLLEKGLEEGLAHSLQVRLQGMPQIRVVPDEQRLVFDGHLNRALGAIDGDIAAAGHP”, the “soluble on expression in E. coli” value is “not soluble”.
For the sequence “MTVTFTLPLDCSFNNLWTCHAEGIERDLGKVGGGAASSGKTSTGVSRTVTRGVNLSGADFSEQDLSGVSFQQSLLRETDFHGAKLVSASFFGAELSYANLEDADLTEANLELANLRSAKLKNAVLRRAYFSGNTRLENVDIDGADFSEVILRKDQKKYLCNIANGTNSHTGVETKTSLGCNSS”, the “soluble on expression in E. coli” value is reported as “not soluble”.
To “MLERILSRENLIQALERVEKNKGSYGVDEMDVKSLRLHLHENWTSIRNEIIEGSYFPKPVRRVEIPKPNGGVRKLGIPTVMDRFLQQAIAQILTQLYDPTFSERSFGFRPHRRGHNAVRQAKQWMKEGYRWVVDIDLEKFFDKVNHDRLMRKLSSRIQDPRVLQLIRRYLQTGVMERGLVSPNTEGTPQGGPLSPLLSNIVLDELDNELEKRGLKFVRYADDCNIYVRSKRAGLRIMESVTSFIENRLKLKVNREKSAVDRPWNRKFLGFSFTRGKDPKMRVSKESVKRLKQRIRELTSRRHSMKMSDRLRRLNRYLTGWLGYYQVVDTPSILAQIDAWIRRRLRMIRWKEWKTTSARQKNLVRLGIKKAKAWQWANSRKGYWRVAHSPIMDYALNSEYWKGQGLMSLAERYQTRRWTLEHHHHHH” belongs “soluble”.
To “MGSDKIHHHHHHMKIKVALLDKDKEYLDRLTGVFNTKYADKLEVYSFTDEKNAIESVKEYRIDVLIAEEDFNIDKSEFKRNCGLAYFTGTPGIELIKDEIAICKYQRVDVIFKQILGVYSDMAANVATISGENDKSSVVIFTSPCGGVGTSTVAAACAIAHANMGKKVFYLNIEQCGTTDVFFQAEGNATMSDVIYSLKSRKANLLLKLESCIKQSQEGVSYFSSTKVALDILEISYADIDTLIGNIQGMDNYDEIIVDLPFSLEIEKLKLLSKAWRIIVVNDGSQLSNYKFMRAYESVVLLEQNDDINIIRNMNMIYNKFSNKNSEMLSNISIKTIGGAPRYEHATVRQIIEALTKMEFFEEILQ” belongs “not soluble”; to “MTDDKKIRAAIVGYGNIGRYALQALREAPDFEIAGIVRRNPAEVPFELQPFRVVSDIEQLESVDVALVCSPSREVERTALEILKKGICTADSFDIHDGILALRRSLGDAAGKSGAAAVIASGWDPGSDSVVRTLMQAIVPKGITYTNFGPGMSMGHTVAVKAIDGVKAALSMTIPLGTGVHRRMVYVELLPGHNLEEVSAAIKADEYFVHDETHVIQVDEVDALIDMGHGVRMVRKGVSGSTQNQRMSFDMEINNPALTGQVLVCAARAAMRQQPGAYTLQEIPVIDLLPGDREQWIGKLC”, “soluble”.
For “MSVNFSPCVLIPCYNHGAMMPGVLARLKPFNLPCIVVDDGSDATTQQQLDSLLAEQPGVTLIRLAENAGKGAAVMRGLQAAADAGFSHAVQVDADGQHAIEDIPKLLALAEQQPAALISGQPIYDDSIPRSRLYGRWVTHVWVWIETLSLQLKDSMCGFRVYPVAPTLQLAKHATIGKRMDFDTEVMVRLYWQGNTSYFVPTRVTYPLDGLSHFDALKDNVRISLMHTRLFFGMLPRIPSLLMRRSSCHWARQSEVKGLWGMRLMLLVWRLLGRTAFSALLYPVVGVYWLTASRARKASQDWLARVRQHQPQAAKLNSYQHFLRFGNAMLDKIASWRGELQPGRDVLFAPGAEAALDVRDPRGKLLLASHLGDVEVCRALAKIQGYKTINALVFSENAQRFKQIMQEMAPQAGINLMPVTDIGPETAILLKEKLDNGEWVAIVGDRIAVNPQRGGDWRVCWSSFMGQPAPFPQGPFILASILRCPVNLIFALRQHGKLHIHCESFADPLQLPRGERQQALQNAIDHYAARLEHYALQSPLDWFNFFDFWQLPEIQDKE” the value was “not soluble”; for “MKNSLCNSVSSVVKKLLEYGEDGTPVYVNELTALNQELRNLCADLLLQKGESPEEEAEILVTLFKGYDTMLFNFSSENEQVIQELLDRSMTVLEKLPASVLKCQLLLECFEQTGDEELIREAKKNIERVI”, “soluble”; for “MENFLHKWFASEYDLYEEDLEKASALVNSHNIRTVVNVMFQHPIFTVNMMAALTSLPEATVRRYLNRFEEQQLIFSDGRMRSKTYYYYNLLDQLR”, “not soluble”.
Turning to “MGSDKIHHHHHHMTLLRGDDFFTSRAVTVAVEPRTPQTAFPEHYHDFWEIVLVEQGAGVHVFNDQPYALCSGSVFFVRDNDRHLFEDVEGLCLTNMLYRSPRGFRFLSDIAAFLPYGPNGEWQGQWQVNAAGMQQLKQSLNSLAGLAQSDAPEAIAASESLFLQILVQLRQHCFQTEGNGSERQGVQALLGWLQNNYSEEVNWGGLADQFSLPLRTLHRQLKQHTGMTPQRYLNRLRLLEARRRLQQSDDSITTIAHACGFSDSNHFSTQFRKAFSQAPKSLRHQAFSREE”, the “soluble on expression in E. coli” value is recorded as “not soluble”.
To “MQPNDITFFQRFQDDILAGRKTITIRDESESHFKTGDVLRVGRFEDDGYFCTIEVTATSTVTLDTLTEKHAEQENMTLTELKKVIADIYPGQTQFYVIEFKCL” belongs “soluble”; to “MGHHHHHHSHSMKEENLCQAFSDALLCKIEDIDNEDWENPQLCSDYVKDIYQYLRQLEVLQSINPHFLDGRDINGRMRAILVDWLVQVHSKFRLLQETLYMCVGIMDRFLQVQPVSRKKLQLVGITALLLASKYEEMFSPNIEDFVYITDNAYTSSQIREMETLILKELKFELGRPLPLHFLRRASKAGEVDVEQHTLAKYLMELTLIDYDMVHYHPSKVAAAASCLSQKVLGQGKWNLKQQYYTGYTENEVLEVMQHMAKNVVKVNENLTKFIAIKNKYASSKLLKISMIPQLNSKAVKDLASPLIGRS”, “not soluble”.
To “GSHMAKTLKDLDGWQVIITDDQGRVIDDNNRRRSRKRGGENVFLKRISDGLSFGKGESVIFNDNVTETYSVYLIHEIRLNTLNNVVEIWVFSYLRWFELKPKLYYEQFRPDLIKEDHPLEFYKDKFFNEVNKSELYLTAELSEIWLKDFIAVGQILPESQWNDSSIDKIEDRDFLVRYACEPTAEKFVPIDIFQIIRRVKEMEPKQSDEYLKRVSVPVSGQKTNRQVMHKMG” belongs “soluble”; to “SLDSPADNPVDSTASDRPVEGRDRDDEGRARNARPRDGLGRPLPYGANGVPRQPEGVVRAPEATVAEAQRLLDDGKPFHAHEVFEDAWKAGPEEERELWRGMAQLAVGLTHSARGNATGGARLLRRGAGAVTAWAASEAGRERPYGMDLGAVAGWARELAGEVEGGGSVDAAARAPRLRG”, “not soluble”.
